The target in assay [1] is T1, Recombinant hamster GRP78 protein (hamster, UniProt G3I8R9 19-654, RED-tris-NTA dye held on the His-tag). Description: MST.
For assay [2], the target named is Substrate-binding domain (SBD) of GRP78 (RED-tris-NTA dye held on the His-tag). Description: MST.
For assay [3], the target named is T1, Recombinant hamster GRP78 protein. Description: MST; 200 uM CaCl2.
Assay [4] has the same target. Description: MST; 100 uM CaCl2.
The target is the same in assay [5]. Description: MST; 1 uM CaCl2.

Positions count from the first letter of the chain named. Numbers in names are those of the source.

T1 sequence (G3I8R9 19-654): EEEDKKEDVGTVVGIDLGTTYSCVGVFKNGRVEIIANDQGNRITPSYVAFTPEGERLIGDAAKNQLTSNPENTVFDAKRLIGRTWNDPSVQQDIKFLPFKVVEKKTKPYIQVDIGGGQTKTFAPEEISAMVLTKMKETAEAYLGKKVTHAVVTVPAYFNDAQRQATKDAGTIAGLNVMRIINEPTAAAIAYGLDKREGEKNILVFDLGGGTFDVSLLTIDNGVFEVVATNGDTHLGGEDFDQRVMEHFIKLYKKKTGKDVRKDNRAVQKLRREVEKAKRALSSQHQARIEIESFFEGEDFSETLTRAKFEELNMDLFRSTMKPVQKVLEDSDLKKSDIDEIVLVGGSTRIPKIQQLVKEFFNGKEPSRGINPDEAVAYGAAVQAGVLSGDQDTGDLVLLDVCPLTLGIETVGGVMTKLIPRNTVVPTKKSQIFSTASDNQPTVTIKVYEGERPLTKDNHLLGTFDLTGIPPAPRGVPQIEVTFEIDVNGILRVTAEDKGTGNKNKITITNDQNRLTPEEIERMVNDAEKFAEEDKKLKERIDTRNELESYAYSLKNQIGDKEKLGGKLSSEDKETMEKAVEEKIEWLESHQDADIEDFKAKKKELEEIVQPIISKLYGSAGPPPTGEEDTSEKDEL
Sequence of Substrate-binding domain (SBD) of GRP78 (RED-tris-NTA dye held on the His-tag) (chain, as listed by the source): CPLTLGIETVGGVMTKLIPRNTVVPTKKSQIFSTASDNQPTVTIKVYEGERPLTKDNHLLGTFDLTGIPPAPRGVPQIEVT

B1: Recombinant human MANF protein (natural protein)
chain: LRPGDCEVCISYLGRFYQDLKDRDVTFSPATIENELIKFCREARGKENRLCYYIGATDDAATKIINEVSKPLAHHIPVEKICEKLKKKDSQICELKYDKQIDLSTVDLKKLRVKELKKILDDWGETCKGCAEKSDYIRKINELMPKYAPKAASARTDL
Broadly, the Kd is the equilibrium constant for the complex coming apart. Regarding B1, the dissociation constant Kd came to 216 nM in assay [1]; 1400 nM in assay [2]; 430 nM in assay [3]; 500 nM in assay [4]; 570 nM in assay [5].

B2: Recombinant MANF E153A mutant protein (natural protein)
chain: B1 chain with E132A
Regarding B2, the Kd in assay [1] worked out at 269 nM.

The values above are taken from paper PMC7949057 (2021).
